Measurements reported in patent US9815881B2, “Method of inducing labor or treating pre-eclampsia by administering relaxin analogs” (The Board of Trustees of the Leland Stanford Junior …, priority 2009, dated 2017).
Entries after “also recorded” stand apart in the source; their conditions may differ. Where no end group is shown, it is not given here.

Legend:
LGR7 [1] = target: T1, LGR7 (Homo sapiens, UniProt Q9HBX9); experiment: Receptor-binding assay: competition for 125I-labeled RLN2 binding to LGR7-expressing HEK293T cells; conditions: for LGR7-binding activity (result in words): competition for labeled RLN2 binding to LGR7
T1 construct: HEK293T cells stably expressing recombinant LGR7 or LGR8; expressed in transfected cells
T1 sequence (Q9HBX9 1-757): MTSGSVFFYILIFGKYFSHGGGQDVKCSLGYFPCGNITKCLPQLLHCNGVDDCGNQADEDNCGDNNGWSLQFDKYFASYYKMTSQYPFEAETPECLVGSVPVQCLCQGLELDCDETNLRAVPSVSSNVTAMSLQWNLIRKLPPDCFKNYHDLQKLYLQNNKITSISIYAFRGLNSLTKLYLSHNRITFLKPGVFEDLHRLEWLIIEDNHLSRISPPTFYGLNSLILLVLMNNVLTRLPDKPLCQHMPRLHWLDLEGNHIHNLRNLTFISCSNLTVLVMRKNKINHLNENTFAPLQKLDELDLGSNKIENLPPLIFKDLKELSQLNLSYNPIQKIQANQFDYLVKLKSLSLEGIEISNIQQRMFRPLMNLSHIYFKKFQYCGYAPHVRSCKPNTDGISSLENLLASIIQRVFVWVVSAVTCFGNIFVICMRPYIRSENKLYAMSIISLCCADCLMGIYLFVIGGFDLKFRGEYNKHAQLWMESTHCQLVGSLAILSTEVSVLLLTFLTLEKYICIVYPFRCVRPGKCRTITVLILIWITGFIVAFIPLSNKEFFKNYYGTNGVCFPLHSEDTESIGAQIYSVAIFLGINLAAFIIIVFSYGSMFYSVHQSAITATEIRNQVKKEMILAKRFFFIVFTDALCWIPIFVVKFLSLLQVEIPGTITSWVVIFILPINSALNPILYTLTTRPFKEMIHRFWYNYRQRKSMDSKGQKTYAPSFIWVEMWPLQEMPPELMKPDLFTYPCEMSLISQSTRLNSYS
Experimental: (§1) To determine the binding characteristics of wild type and mutant peptides, HEK293T cells expressing LGR7 or LGR8 were grown to 90% confluence, collected by centrifugation at 3000×g for 2 min, and washed two times in 2 ml of ice-cold binding buffer. Cells were resuspended in ice-cold binding buffer, and aliquots of cell suspension were incubated with increasing doses of purified recombinant peptides in the presence of 0.025 pmol of ^125I-labeled RLN2 tracer (Phoenix Pharmaceuticals, Burlingame, Calif.) at room temperature for 2 h. After washing three times in an ice-cold binding buffer, radioactivity bound to the cells was measured using a γ-counter (EG&G Wallace, Gaithersburg, Md.). Total binding was determined in the absence, and nonspecific binding in the presence, of 25 nmol of unlabeled RLN2. In regular assays, total binding was ˜30,000 cpm, and nonspecific binding amounted to less than 20% of the total binding. Data points were collected in triplicate, and similar results were obtained in at least two independent assays.
(§2) Receptor-activation and receptor binding activity curves generated in nonlinear regression analyses (Prism; GraphPad Software, San Diego, Calif.) were evaluated relative to the samples without hormone treatment. In all cases data are reported as the mean±S.E. of assays in triplicate or quadruplicate. Statistically significant responses (p<0.05) were determined for each stimulated response to the average nonspecific response from control samples using analysis of variance and Student's t test.

LGR7 [2] = target: T1, LGR7; experiment: Receptor-activation analysis: cAMP production in LGR7-expressing HEK293T cells; format: cell-based; conditions: for LGR7-activation activity (result in words): LGR7-expressing HEK293T cells
Experimental: (§3) The bioactivity of relaxin family peptides was determined based on the stimulation of adenylate cyclase activity in HEK293T cells stably expressing recombinant LGR7 or LGR8. Stable LGR7- or LGR8-expressing cells were maintained in Dulbecco's modified Eagle's medium/F-12 media supplemented with […] Zeocin (Invitrogen). After seeding at a density of 2×10^5 cells per well in 500 μl of Dulbecco's modified Eagle's medium/F-12 medium containing 0.1% bovine serum albumin in 48-well plates, cells were preincubated at 37° C. for 30 min in the presence of 0.25 mM 3-isobutyl-1-methylxanthine before treatment with increasing concentrations of peptides (from 0 to 100 nM) in quadruplicate. Twelve hours after treatment, the culture was reacted with acetic anhydride/triethylamine, and total cAMP content in cell lysates was measured using a specific cAMP radioimmunoassay. A nontagged human RLN2 peptide was used as a standard to verify the bioactivity of tagged RLN2 peptides.
as §2

LGR8 [3] = target: T2, LGR8 (Homo sapiens, UniProt Q8WXD0); experiment: Receptor-activation analysis: cAMP production in LGR8-expressing HEK293T cells; format: cell-based; conditions: for LGR8-activation activity (result in words): LGR8-expressing HEK293T cells
T2 construct: HEK293T cells stably expressing recombinant LGR7 or LGR8; expressed in transfected cells
T2 sequence (Q8WXD0 whole entry): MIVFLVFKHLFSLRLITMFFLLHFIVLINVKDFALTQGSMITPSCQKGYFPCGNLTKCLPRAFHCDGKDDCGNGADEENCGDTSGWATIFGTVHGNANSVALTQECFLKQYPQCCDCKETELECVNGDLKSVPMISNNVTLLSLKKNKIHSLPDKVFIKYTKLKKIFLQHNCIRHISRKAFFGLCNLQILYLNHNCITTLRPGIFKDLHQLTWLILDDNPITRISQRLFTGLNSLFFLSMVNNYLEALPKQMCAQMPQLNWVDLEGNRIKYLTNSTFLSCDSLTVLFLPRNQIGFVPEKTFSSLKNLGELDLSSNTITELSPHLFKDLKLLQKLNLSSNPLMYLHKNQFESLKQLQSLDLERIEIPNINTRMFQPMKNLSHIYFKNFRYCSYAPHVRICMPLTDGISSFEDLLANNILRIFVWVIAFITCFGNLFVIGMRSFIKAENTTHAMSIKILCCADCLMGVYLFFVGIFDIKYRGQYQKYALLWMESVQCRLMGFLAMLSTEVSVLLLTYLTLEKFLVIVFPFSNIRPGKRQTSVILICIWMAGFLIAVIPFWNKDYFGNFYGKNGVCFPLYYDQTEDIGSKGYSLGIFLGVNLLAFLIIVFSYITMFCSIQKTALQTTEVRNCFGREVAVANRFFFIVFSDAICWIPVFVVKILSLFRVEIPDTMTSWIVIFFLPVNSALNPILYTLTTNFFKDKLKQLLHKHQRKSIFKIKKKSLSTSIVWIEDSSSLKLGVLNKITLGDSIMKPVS
Experimental: as §3, §2

LGR8 [4] = target: T2, LGR8; experiment: Receptor-binding assay: competition for 125I-labeled RLN2 binding to LGR8-expressing HEK293T cells; conditions: for LGR8-binding activity (result in words): competition for labeled RLN2 binding to LGR8
Experimental: as §1, §2

## RLN2 C-8: Myc- and His6-tagged RLN2 from construct with a truncated C-domain of 8 amino acids (chain 1 SWMEEVIKLCGRELVRAQIAICGMSTWSHHHHHH; chain 2 QLYSALANKCCHVGCTKRSLARFC; ends and bridges not checked; also: Myc tag, not in given chain)
LGR7 [1]
  LGR7-binding activity (result in words): high affinity

## RLN2 P^A23A: RLN2 mutant with alanine substitution at the PheA23 position (chain 1 SWMEEVIKLCGRELVRAQIAICGMSTWSHHHHHH; chain 2 QLYSALANKCCHVGCTKRSLARAC; not fully specified; ends and bridges not checked)
LGR7 [2]; listed as FA23A
  LGR7-activation activity (result in words): preferentially activate LGR7
LGR7 [2]; listed as RLN2 FA23A
  LGR7-activation activity (result in words): retains an LGR7-activation activity similar to that of wild type peptides
LGR7 [1]; listed as RLN2 FA23A
  LGR7-binding activity (result in words): affinities similar to that of wild type peptides
LGR7 [1]; listed as RLN2 F^A23A
  LGR7-binding activity (result in words): without an effect on LGR7-binding activity
LGR8 [3]; listed as RLN2 FA23A
  LGR8-activation activity (result in words): lacks an LGR8-activation activity
LGR8 [3]; listed as RLN2 F^A23A
  LGR8-activation activity (result in words): ablated
LGR8 [4]; listed as RLN2 FA23A
  LGR8-binding activity (result in words): significantly reduced the affinity for LGR8
LGR8 [4]; listed as RLN2 F^A23A
  LGR8-binding activity (result in words): significantly reduced

## RLN2 R^A22A: RLN2 mutant with alanine substitution at the ArgA22 position (chain 1 SWMEEVIKLCGRELVRAQIAICGMSTWSHHHHHH; chain 2 QLYSALANKCCHVGCTKRSLAAFC; not fully specified; ends and bridges not checked)
LGR7 [2]
  LGR7-activation activity (result in words): minimal effect
LGR7 [1]
  LGR7-binding activity (result in words): affinities similar to that of wild type peptides
LGR8 [3]
  LGR8-activation activity (result in words): minimal effect

## RLN2^A22-23: RLN2 mutant with alanine substitution at the A22-23 region of the A chain (chain 1 SWMEEVIKLCGRELVRAQIAICGMSTWSHHHHHH; chain 2 QLYSALANKCCHVGCTKRSLAAAC; not fully specified; ends and bridges not checked)
LGR7 [1]
  LGR7-binding activity (result in words): reduced affinity for LGR7
LGR8 [3]
  LGR8-activation activity (result in words): ablates LGR8, but not LGR7, activation activity; also recorded: almost abolished
LGR8 [4]
  LGR8-binding activity (result in words): lost its LGR8-binding activity

B1: WT RLN2: recombinant tagged wild type human relaxin H2 (RLN2) (protein, listed as Homo sapiens)
chain: MPRLFFFHLLGVCLLLNQFSRAVADSWMEEVIKLCGRELVRAQIAICGMSTWSKRSLSQEDAPQTPRPVAEIVPSFINKDTETINMMSEFVANLPQELKLTLSEMQPALPQLQQHVPVLKDSSLLFEEFKKLIRNRQSEAADSSPSELKYLGLDTHSRKKRQLYSALANKCCHVGCTKRSLARFC
modifications: tag; RLN2 polypeptide
LGR7 [2]; HEK293T cells stably expressing LGR7, mean ± S.E., ND = pEC50 not measurable
  pEC50 on the activation of LGR7: 9.30 ± 0.04
LGR7 [2]
  LGR7-activation activity (result in words): activates both receptors at the nanomolar range
LGR7 [1]; 125I-labeled RLN2 tracer, LGR7-expressing HEK293T cells, mean ± S.E.
  pIC50 in competition for RLN2 binding to LGR7: 8.72 ± 0.06
LGR8 [3]; HEK293T cells stably expressing LGR8, mean ± S.E., ND = pEC50 not measurable
  pEC50 on the activation of LGR8: 7.41 ± 0.14
LGR8 [3]
  LGR8-activation activity (result in words): activates both receptors at the nanomolar range
LGR8 [4]; 125I-labeled RLN2 tracer, LGR8-expressing HEK293T cells, mean ± S.E., ND = pIC50 not measurable
  pIC50 in competition for RLN2 binding to LGR8: 7.90 ± 0.16
